± gives the uncertainty stated by the source.
B1: Tumor protein 63, residues 545 to 610; numbered along this chain, Q9H3D4 (parent)
chain: TDCSIVSFLARLGCSSCLDYFTTQGLTTIYQIEHYSMDDLASLKIPEQFRHAIWKGILDHRQLHEF

Variants of: B1
Assay: abundance fitness (aPCA) (normalised: wild type 0, dead -1); higher = more abundant; growth selection in yeast, the domain comes from the species named
Details: Homo sapiens

**Q.** Which abundance fitness does the source give for TDCSIVSFLARLGCSSCLDYFTTQGLTTIYQIEHYSMDDCASLKIPEQFRHAIWKGILDHRQLHEF [L40C] here?
**A.** -0.509 ± 0.066

**Q.** For TDCSIVSFLARLGCSSCLDYFTTQGLTTIYQIEHYSMDDIASLKIPEQFRHAIWKGILDHRQLHEF [L40I], which abundance fitness is on record?
**A.** -0.037 ± 0.04

**Q.** For TDCSIVSFLARLGCSSCLDYFTTQGLTTIYQIEHYSMDDKASLKIPEQFRHAIWKGILDHRQLHEF [L40K], which abundance fitness is on record?
**A.** -1.02 ± 0.3

**Q.** Which abundance fitness does the source give for TDCSIVSFLARLGCSSCLDYFTTQGLTTIYQIEHYSMDDDASLKIPEQFRHAIWKGILDHRQLHEF [L40D] here?
**A.** -0.897 ± 0.096

**Q.** For TDCSIVSFLARLGCSSCLDYFTTQGLTTIYQIEHYSMDDPASLKIPEQFRHAIWKGILDHRQLHEF [L40P], which abundance fitness is on record?
**A.** -0.893 ± 0.062

**Q.** With TDCSIVSFLARLGCSSCLDYFTTQGLTTIYQIEHYSMDDEASLKIPEQFRHAIWKGILDHRQLHEF [L40E] as the variant, how does the abundance fitness read?
**A.** -1.03 ± 0.11

**Q.** With TDCSIVSFLARLGCSSCLDYFTTQGLTTIYQIEHYSMDDNASLKIPEQFRHAIWKGILDHRQLHEF [L40N] as the variant, how does the abundance fitness read?
**A.** -0.888 ± 0.13

**Q.** With TDCSIVSFLARLGCSSCLDYFTTQGLTTIYQIEHYSFDDLASLKIPEQFRHAIWKGILDHRQLHEF [M37F] as the variant, how does the abundance fitness read?
**A.** -0.009 ± 0.072

**Q.** With TDCSIVSFLARLGCSSCLDYFTTQGLTTIYQIEHYSQDDLASLKIPEQFRHAIWKGILDHRQLHEF [M37Q] as the variant, how does the abundance fitness read?
**A.** -0.07 ± 0.031

**Q.** Which abundance fitness does the source give for TDCSIVSFLARLGCSSCLDYFTTQGLTTIYQIEHYSDDDLASLKIPEQFRHAIWKGILDHRQLHEF [M37D] here?
**A.** -0.138 ± 0.039

**Q.** With TDCSIVSFLARLGCSSCLDYFTTQGLTTIYQIEHYSRDDLASLKIPEQFRHAIWKGILDHRQLHEF [M37R] as the variant, how does the abundance fitness read?
**A.** -0.037 ± 0.026

**Q.** Which abundance fitness does the source give for TDCSIVSFLARLGCSSCLDYFTTQGLTTIYQIEHYSTDDLASLKIPEQFRHAIWKGILDHRQLHEF [M37T] here?
**A.** -0.076 ± 0.029

**Q.** With TDCSIVSFLARLGCSSCLDYFTTQGLTTIYQIEHYSWDDLASLKIPEQFRHAIWKGILDHRQLHEF [M37W] as the variant, how does the abundance fitness read?
**A.** -0.071 ± 0.044

**Q.** For TDCSIVSFLARLGCSSCLDYFTTQGLTTIYQIEHYSYDDLASLKIPEQFRHAIWKGILDHRQLHEF [M37Y], which abundance fitness is on record?
**A.** -0.049 ± 0.05

**Q.** For TDCSIVSFLARLGCSSCLDYFTTQGLTTIYQIEHYSEDDLASLKIPEQFRHAIWKGILDHRQLHEF [M37E], which abundance fitness is on record?
**A.** -0.014 ± 0.039

**Q.** With TDCSIVSFLARLGCSSCLDYFTTQGLTTIYQIEHYSGDDLASLKIPEQFRHAIWKGILDHRQLHEF [M37G] as the variant, how does the abundance fitness read?
**A.** -0.215 ± 0.028

**Q.** With TDCSIVSFLARLGCSSCLDYFTTQGLTTIYQIEHYSVDDLASLKIPEQFRHAIWKGILDHRQLHEF [M37V] as the variant, how does the abundance fitness read?
**A.** -0.011 ± 0.027

**Q.** Which abundance fitness does the source give for TDCSIVSFLARLGCSSCLDYFTTQGLTTIYQIEHYSADDLASLKIPEQFRHAIWKGILDHRQLHEF [M37A] here?
**A.** -0.063 ± 0.025

**Q.** With TDCSIVSFLARLGCSSCLDYFTTQGLTTIYQIEHYSNDDLASLKIPEQFRHAIWKGILDHRQLHEF [M37N] as the variant, how does the abundance fitness read?
**A.** -0.132 ± 0.037

**Q.** Which abundance fitness does the source give for TDCSIVSFLARLGCSSCLDYFTTQGLTTIYQIEHYSCDDLASLKIPEQFRHAIWKGILDHRQLHEF [M37C] here?
**A.** -0.083 ± 0.039

**Q.** With TDCSIVSFLARLGCSSCLDYFTTQGLTTIYQIEHYSPDDLASLKIPEQFRHAIWKGILDHRQLHEF [M37P] as the variant, how does the abundance fitness read?
**A.** -0.014 ± 0.037

**Q.** With TDCSIVSFLARLGCSSCLDYFTTQGLTTIYQIEHYSSDDLASLKIPEQFRHAIWKGILDHRQLHEF [M37S] as the variant, how does the abundance fitness read?
**A.** -0.083 ± 0.025

**Q.** Which abundance fitness does the source give for TDCSIVSFLARLGCSSCLDYFTTQGLTTIYQIEHYMMDDLASLKIPEQFRHAIWKGILDHRQLHEF [S36M] here?
**A.** -0.096 ± 0.05

**Q.** With TDCSIVSFLARLGCSSCLDYFTTQGLTTIYQIEHYWMDDLASLKIPEQFRHAIWKGILDHRQLHEF [S36W] as the variant, how does the abundance fitness read?
**A.** -0.436 ± 0.05

**Q.** For TDCSIVSFLARLGCSSCLDYFTTQGLTTIYQIEHYTMDDLASLKIPEQFRHAIWKGILDHRQLHEF [S36T], which abundance fitness is on record?
**A.** -0.023 ± 0.044

**Q.** With TDCSIVSFLARLGCSSCLDYFTTQGLTTIYQIEHYQMDDLASLKIPEQFRHAIWKGILDHRQLHEF [S36Q] as the variant, how does the abundance fitness read?
**A.** -0.049 ± 0.044

**Q.** With TDCSIVSFLARLGCSSCLDYFTTQGLTTIYQIEHYGMDDLASLKIPEQFRHAIWKGILDHRQLHEF [S36G] as the variant, how does the abundance fitness read?
**A.** -0.028 ± 0.018

**Q.** For TDCSIVSFLARLGCSSCLDYFTTQGLTTIYQIEHYRMDDLASLKIPEQFRHAIWKGILDHRQLHEF [S36R], which abundance fitness is on record?
**A.** -0.071 ± 0.024

**Q.** For TDCSIVSFLARLGCSSCLDYFTTQGLTTIYQIEHYVMDDLASLKIPEQFRHAIWKGILDHRQLHEF [S36V], which abundance fitness is on record?
**A.** -0.09 ± 0.025

**Q.** With TDCSIVSFLARLGCSSCLDYFTTQGLTTIYQIEHYNMDDLASLKIPEQFRHAIWKGILDHRQLHEF [S36N] as the variant, how does the abundance fitness read?
**A.** 0.009 ± 0.055

**Q.** Which abundance fitness does the source give for TDCSIVSFLARLGCSSCLDYFTTQGLTTIYQIEHYFMDDLASLKIPEQFRHAIWKGILDHRQLHEF [S36F] here?
**A.** -0.379 ± 0.04

**Q.** For TDCSIVSFLARLGCSSCLDYFTTQGLTTIYQIEHYHMDDLASLKIPEQFRHAIWKGILDHRQLHEF [S36H], which abundance fitness is on record?
**A.** -0.13 ± 0.092

**Q.** With TDCSIVSFLARLGCSSCLDYFTTQGLTTIYQIEHYIMDDLASLKIPEQFRHAIWKGILDHRQLHEF [S36I] as the variant, how does the abundance fitness read?
**A.** -0.188 ± 0.04

**Q.** Which abundance fitness does the source give for TDCSIVSFLARLGCSSCLDYFTTQGLTTIYQIEHYPMDDLASLKIPEQFRHAIWKGILDHRQLHEF [S36P] here?
**A.** -0.608 ± 0.057

**Q.** Which abundance fitness does the source give for TDCSIVSFLARLGCSSCLDYFTTQGLTTIYQIEHYLMDDLASLKIPEQFRHAIWKGILDHRQLHEF [S36L] here?
**A.** -0.177 ± 0.027

**Q.** Which abundance fitness does the source give for TDCSIVSFLARLGCSSCLDYFTTQGLTTIYQIEHYEMDDLASLKIPEQFRHAIWKGILDHRQLHEF [S36E] here?
**A.** -0.014 ± 0.036

**Q.** With TDCSIVSFLARLGCSSCLDYFTTQGLTTIYQIEHYAMDDLASLKIPEQFRHAIWKGILDHRQLHEF [S36A] as the variant, how does the abundance fitness read?
**A.** -0.062 ± 0.025

**Q.** With TDCSIVSFLARLGCSSCLDYFTTQGLTTIYQIEHYYMDDLASLKIPEQFRHAIWKGILDHRQLHEF [S36Y] as the variant, how does the abundance fitness read?
**A.** -0.311 ± 0.068

**Q.** For TDCSIVSFLARLGCSSCLDYFTTQGLTTIYQIEHWSMDDLASLKIPEQFRHAIWKGILDHRQLHEF [Y35W], which abundance fitness is on record?
**A.** 0.001 ± 0.024

**Q.** Which abundance fitness does the source give for TDCSIVSFLARLGCSSCLDYFTTQGLTTIYQIEHVSMDDLASLKIPEQFRHAIWKGILDHRQLHEF [Y35V] here?
**A.** -0.118 ± 0.024

**Q.** With TDCSIVSFLARLGCSSCLDYFTTQGLTTIYQIEHTSMDDLASLKIPEQFRHAIWKGILDHRQLHEF [Y35T] as the variant, how does the abundance fitness read?
**A.** -0.318 ± 0.028

From the Human Domainome abundance scans (Beltran et al. 2025)
